Non-standard residues stand in square brackets, D forms with d. Residues, ends and D or L forms follow the SMILES beside them. *: point of attachment. Dolaproine = CO[C@@H]([C@@H]1CCCN1)[C@@H](C)C(=O)O; Dil = CC[C@H](C)[C@H](NC)[C@@H](CC(=O)O)OC; {MMAE} = monomethyl auristatin E payload; X1 = C[C@@H](N*)[C@@H](O)c1ccccc1; {Cy5} = cyanine 5 fluorescent dye; NMeV = CN[C@H](C(=O)O)C(C)C
Tests used:
[1] = system: U118MG subcutaneous tumor; experiment: Long-interval administration in U118MG subcutaneous tumor model mice (Experimental Example 23); assay type: in vivo; settings: 0.1 or 0.3 mg/kg subcutaneous on D8, D11, D15, D29, D32, D36
Description: According to the method of Experimental Example 4, 42 mice inoculated with U118MG subcutaneous tumor were obtained, and were further fed after injection.
MMAE was dissolved into solutions with concentrations of 0.03 mg/mL and 0.01 mg/mL with 10% DMSO+90% serum-free DMEM medium (volume ratio). Conjugate 39 was dissolved into solutions with concentrations of 0.5 mg/mL and 0.165 mg/mL (based on aptamer). Comparative conjugate 44 was dissolved into solutions with concentrations of 0.5 mg/mL and 0.165 mg/mL (based on aptamer).
7 days after inoculation of U118MG cells, all mice were randomly divided into seven groups (6 mice per group), and each group of mice was administered. […] The mice were weighed before administration and the administration volume was calculated according to weight. […]
The tumor volumes were measured on D1, D9, D16, D19, D21, D24, D26, D29, D32, D36, D39, D43, D47, D53, D57, D60, D64, D67, D71, D74, D78, D81, D84, D88, D92, D95, and D99, wherein the blank control group was measured on D53, and test groups 7a, 7b and control group 7c were measured on D60, and then the experiment was terminated.
The long diameters and short diameters of the tumors were measured in vitro. The tumor volume was calculated according to the equation ½ (long diameter×short diameter^2). After the experiment was terminated, the tumor tissues were taken and weighed, and the average value was calculated.

[2] = system: U118MG glioma subcutaneous tumor; experiment: In vivo anti-tumor activity in U118MG subcutaneous tumor mice (Experimental Example 11); design: species or system NOD-SCID mice
Description: The mice in this experiment were purchased from SPF Co., LTD: the germline was NOD-SCID, the grade was SPF, male, 6-8 weeks old; U118MG neuroglioma cells were purchased from Jennio.
The conjugate AP2 above was formulated into a 1.94 mg/mL solution with PBS. Conjugate 20 was respectively formulated into 0.625 mg/mL, 1.25 mg/mL and 2.06 mg/mL solutions with PBS (all calculated based on the amount of aptamer). MMAE (purchased from Shanghai Macklin Inc., Lot No. C12886583) was dissolved into a 0.038 mg/mL solution with a mixed solution of 10% DMSO+90% PBS (volume ratio).
The day of inoculation is designated as D1, and administration is performed once on D8, D12, D16 and D20.
36 mice were randomly divided into the following 6 groups (6 mice per group):
For blank control group 1, PBS was administered by tail vein injection with a single administration volume of 10 μL/g. […]
The long diameters and short diameters of the tumors were measured in vitro. The tumor volume was calculated according to the equation ½ (long diameter×short diameter^2). Prior to the first administration on D8, the tumor volumes in each group were measured and the average tumor volumes were recorded; the tumor volumes in each group were measured and recorded from D16 (twice a week).

A549 subcutaneous tumors = experiment: In vivo activity in A549 subcutaneous tumor model mice (Experimental Example 25); settings: 5 mg/kg (MMAE equivalent 0.3 mg/kg) D8, D12, D15, D19; 0.6 mg/kg MMAE equivalent D46, D50, D54; at each period of time
Description: According to the method of Experimental Example 4, 30 mice inoculated with A549 subcutaneous tumors were obtained, and were further fed after injection.
Conjugate 20 and conjugate 39 were dissolved into conjugate solutions with a concentration of 1 mg/mL (based on aptamer) with serum-free DMEM medium. Comparative conjugate 43 was dissolved into a conjugate solution with a concentration of 0.8 mg/mL (based on aptamer). MMAE was dissolved into a solution with a concentration of 0.06 mg/mL with 10% DMSO+90% serum-free DMEM medium (volume ratio).
7 days after the inoculation of A549 human lung cancer cells, all mice were divided into groups (6 mice each group), and each mouse was administered. The day of administration was designated as D8. The mice were weighed before administration, and the administration volume was calculated according to mouse body weight.
Each group of mice was administered once on D8, D12, D15, and D19, four times in total. […]
Tumor volumes were measured on D1, D9, D16, D19, D22, D26, D30, D36, D40, D43, D47, D50, D54, and D57, wherein the blank control group was measured on D54, and then the experiment was terminated.
The long diameters and short diameters of the tumors were measured in vitro. The tumor volume was calculated according to the equation ½ (long diameter×short diameter^2).

[3] = system: U118MG glioma subcutaneous tumor; experiment: In vivo distribution in U118MG cell subcutaneous tumor model mice (Experimental Example 4); design: species or system NOD-SCID mice
Description: U118MG human glioma cells in the logarithmic growth phase were selected and digested (0.25% pancreatic enzyme).
The mice were further fed for 20 days after injection.
The mice inoculated with U118MG above were randomly divided into 3 groups (4 mice per group). For the 4 mice per group, the administration volume was calculated according to 10 μL/g body weight, and AP1, AP2 and comparative AP11 were respectively administered to different groups of mice by tail vein injection and designated as test group 4A1, test group 4A2 and control group 4A3. Thus, the administration dosage of each mouse was 3 mg/kg (based on aptamer). Another mouse inoculated with U118MG above was administered with 1×DMEM medium by tail vein injection (the administration volume was 10 μL/g body weight), and designated as blank control group 4Y.

[4] = system: U118MG in situ brain glioma; experiment: In vivo distribution in U118MG cell tumor in situ model mice (Experimental Example 5); settings: control groups 5C (intrathecal 100 μg) and 5F (tail vein 3 mg/kg); 24 h and 48 h
Description: (§1) U118MG human glioma cells in the logarithmic growth phase cultured as described in experimental Example 4 were selected and digested with 0.25% pancreatic enzyme. The cells were collected, the supernatant was aspirated, and then the cells were resuspended in DMEM medium supplemented with 10% FBS to be formulated into a cell culture solution with a cell density of 4×10^7 cells/mL.
(§2) Experimental animals were 16 NOD-SCID mice (male, 12 weeks old, purchased from SPF (Beijing) Biotechnology Co., LTD.). […]
(§3) AP1, AP2 and comparative AP11 were respectively dissolved into conjugate solutions with a concentration of 0.3 mg/mL (based on aptamer) with 1×DMEM medium. […] The administration dosage for all animals was calculated according to body weight, the administration volume was all 10 μL/g, and the administration dosage was 3 mg/kg per animal (based on the amount of aptamer). […]
(§4) At 24 h after administration, one mouse in each group was respectively euthanized and brain tissue was taken, and the remaining mice were euthanized at 48 h after administration and brain tissues were taken. The brain tissues of mice were taken for fluorescence imaging in IVIS Lumina Series III.

[5] = system: U118MG subcutaneous tumor; experiment: In vivo distribution of conjugates with different modifications in U118MG subcutaneous tumor model mice (Experimental Example 6); design: species or system NOD-SCID mice; settings: 3 mg/kg tail vein
Description: U118MG subcutaneous tumor model mice were prepared according to the method described in experimental Example 4.
9 mice were divided into 3 groups (3 mice per group). AP2, AP3 and comparative AP12 solutions were respectively administered to each mouse of each group by tail vein injection. […] The three groups of mice were respectively designated as test group 6A, test group 6B and test group 6C. […] On Day 10 after administration, one mouse of blank control group 6Y and one mouse of test group 6A was respectively euthanized and tumor tissues were taken for fluorescence imaging, and the results are shown in FIG. 5H. In FIGS. 5A-5H, Blank represents blank control group 6Y.

[6] = system: U118MG in situ brain glioma; settings: mouse, in vivo, 3 mg/kg
Description: as §1, §2, §3, §4

Compound: CC[C@H](C)[C@@H]([C@@H](CC(=O)N1CCC[C@H]1[C@H](OC)[C@@H](C)C(=O)N[C@H](C)[C@@H](O)c1ccccc1)OC)N(C)C(=O)[C@@H](NC(=O)[C@@H](NC)C(C)C)C(C)C [MMAE, Monomethylauristatin E, reference compound] (H-[NMeV]V[Dil][Dolaproine]-X1)
- growth rate of tumor volume [1]: growth rate of tumor volume was reduced
- growth rate of tumor volume ([2]; control group 3: 0.3 mg/kg tail vein on D8, D12, D16, D20): growth rate of the tumor volume was reduced

Compound: MMAE-CmUmGmGmAmGmUmUmCmAmGmAmCmGmUmGmUmUmGmCmUmCmUmUmCmCmGmAmUmCmUmCm (CUGGAGUUCAGACGUGUUGCUCUUCCGAUCUC; all 2'-O-methyl, 5' {MMAE}, backbone not given here) [conjugate 20]
- tumor volume versus control groups 25b (MMAE) and 25e (comparative conjugate 43) (A549 subcutaneous tumors): smaller than those of control groups 25b and 25e

Compound: CY5-UfCfUfAUfGGCfUfGCfCfGAUfCfUfGGUfCfUfCfCfAUfGUfACfGUf (UCUAUGGCUGCCGAUCUGGUCUCCAUGUACGU; 2'-fluoro at CU, RNA at AG, 5' {Cy5}, backbone not given here) [comparative AP11, reference compound]
- fluorescence signal in mice / at site of tumor inoculation ([3]; 3 mg/kg tail vein injection, 1 h, 4 h, 24 h, 48 h after administration): substantially no or weak fluorescence signal
- fluorescence signal at the tumor site, brain tissue [4]: no obvious fluorescence signal at the tumor site

Compound: CY5-CmUmGmGmAmGmUmUmCmAmGmAmCmGmUmGmUmUmGmCmUmCmUmUmCmCmGmAmUmCmUmCm [AP2]
- fluorescence intensity in vivo / tumor ([5]; 4 h to 24 h after administration): still show high fluorescence intensity
- fluorescent signal in vivo / tumor ([5]; 48 h to Day 10 after administration): still show strong fluorescent signal
- fluorescence signal in mice / at site of tumor inoculation ([3]; mouse, in vivo): strong fluorescence signal at the sites of tumor inoculation
- tumor volume over time ([2]; control group 2: 15.5 mg/kg tail vein on D8, D12, D16, D20): increased rapidly
- fluorescence signal at brain glioma [6]: obvious fluorescence signals at both 24 and 48 h

Compound: MMAE-CmUmGmGmAmGmUmUmCmAmGmAmCmGmUmUmGmUmGmCmUmCmUmUm (CUGGAGUUCAGACGUUGUGCUCUU; all 2'-O-methyl, 5' {MMAE}, backbone not given here) [conjugate 39]
- tumor volume versus control groups 25b (MMAE) and 25e (comparative conjugate 43) (A549 subcutaneous tumors): smaller than those of control groups 25b and 25e

From patent publication US20250325675A1, “APTAMER, CONJUGATE, COMPOSITION, METHOD FOR PREPARING SAME, AND USE THEREOF” (priority 2022, published 2025)
